One molecule from article PMC1935004 can be followed below.

For data set [1], the target named is T1, BLBlaI-NTD (Bacillus licheniformis, UniProt P06555 1-82).
T1 sequence: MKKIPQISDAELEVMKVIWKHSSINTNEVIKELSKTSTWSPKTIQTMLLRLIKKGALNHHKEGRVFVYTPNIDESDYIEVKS
The experiment in a line: NMR titration.

Data set [2] deals with T2, SAMecI-NTD (Staphylococcus aureus, UniProt P68261 1-83).
T2 sequence: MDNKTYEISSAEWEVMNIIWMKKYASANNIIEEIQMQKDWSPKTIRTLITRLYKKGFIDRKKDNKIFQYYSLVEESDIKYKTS
The experiment in a line: NMR titration.

As a reminder, the Kd is the constant that tells how readily two partners part at equilibrium. A high value points to a looser complex.

B1: 1/2OP1blaP (dsDNA)
DNA 1: AAAGTATTACAT
DNA 2: ATGTAATACTTT
In the case of B1, the Kd in data set [1] worked out at 190 ± 50 µM; in data set [2], 860 ± 80 µM.
